The values below come from patent US20230391845A1, “GLP-1, GIP AND GLUCAGON RECEPTOR TRIPLE AGONISTS” (priority 2020, published 2023).

*1 amine or outer side, *2 acyl side, *3 side chain or, on linkers, in order; H or OH if unused. Where a SMILES comes first, the peptide text is derived from it. Where no end group is shown, it is not given here. Side-chain parts run from the residue outwards. [ ]: non-standard residue; d: D form. The star is where a group is joined. C20 diacid = O=C(O)CCCCCCCCCCCCCCCCCCC(=O)*; γGlu = O=C(O)[C@H](CCC(=O)[*:2])N[*:1]; εLys = N[C@@H](CCCCN[*:1])C(=O)[*:2]; Aib = CC(C)(N)C(=O)O

The target of one series is T1, human GLP-1 receptor (Homo sapiens, UniProt P43220).
T1 construct: expressed in transfected cells; host or cells: BHK cells (parent line BHKTS13) containing CRE luciferase
In words: In vitro functional potency (CRE luciferase; whole cells), human GLP-1R. Type of series: cell-based.

Series [1] is described as follows: Pharmacokinetic study in minipigs, i.v. administration. Further details: species or system Göttingen minipigs. To be noted: female, Göttingen, minipig, in vivo, iv; minipigs, i.v. administration, harmonic mean; read-out: Terminal half-life t1/2 (converted). Summed up: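 Terminal half-life, reported as harmonic mean, came from non-compartmental fits of plasma levels measured by antibody assay or LCMS over up to 14 days. Dosing was i.v., typically 1.5-2 nmol/kg, through implanted caval catheters in fasted female Göttingen minipigs of 16-35 kg.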

A short description of series [2]: Pharmacodynamic study in DIO mice, daily s.c. dosing over 13 days (body weight, food intake). Format: in vivo, C57BL/6J male mice. The procedure: (§1) The purpose of this example is to assess the in vivo effect of selected triple agonists on pharmacodynamic parameters in diet-induced obese (DIO) mice. The animals were treated once daily via subcutaneous injection with a liquid formulation of the triple agonist to be tested to assess effects on body weight, foot intake, and glucose tolerance.
(§2) C57BL/6J male mice were purchased from Jackson Laboratories at approximately 8 weeks of age. Mice were group housed and fed a high-fat, high-sugar diet from Research Diets (D12331). Mice were maintained on this diet for 12 weeks prior to initializing the pharmacology studies. Mice exceeding a measured body weight of 50 grams were considered diet-induced obese (DIO) and included in pharmacology studies. Mice were exposed to a controlled 12 h:12 h light:dark cycle at ambient room temperature (22° C.) with ab libitum access to food and water. Studies were approved by and performed according to the guidelines of the Institutional Animal Care and Use Committee of the University of Cincinnati.
(§3) All compounds in the study were formulated in the following buffer: 50 mM phosphate; 70 mM sodium chloride; 0.05% Tween-80, pH 7.4. Dosing solutions were formulated in glass vials and stored at 2-8° C. Dosing solutions were brought to room temperature before dosing and returned to 2-8° C. after dosing.
(§4) The animals were grouped to receive treatment as follows: Vehicle or GLP-1/GIP/Gcg receptor triple agonists as described herein, where vehicle is 50 mM phosphate, 70 mM sodium chloride; 0.05% (v/v) Tween-80, pH 7.4. The test compounds were dissolved in the vehicle, to stock concentrations of […], then diluted 50- to 200-fold in the vehicle to achieve the desired dosing solution concentrations. Animals were dosed subcutaneously once daily in the morning for each day of treatment with dosing solution at a volume of 2-5 μL per gram of body weight as necessary to achieve the desired dose (e.g. 0.3 nmol/kg, 1.0 nmol/kg, or 3.0 nmol/kg).
Body weight (BW) and food intake were measured immediately prior to dosing each day. The percent change in body was calculated individually for each mouse based on initial body weight prior to the first injection.

A short description of series [3]: IPGTT (intraperitoneal glucose tolerance test) in DIO mice. To be noted: 1.0 nmol/kg s.c. once daily, i.p. glucose 2 g/kg, baseline subtracted AUC. Type of series: in vivo, C57BL/6J male mice. Here is the method: as §1, §2, §3
as §4, with “DIO mice were distributed into groups (n=8 per group) such that statistical variations in the mean and standard deviations of fat mass and body weight were minimized between groups. The animals” for “The animals”
On the day of the glucose tolerance test, animals were fasted for 4 h. Food was removed and animals were transferred to fresh cages. Animals had access to water but not to food. Tail blood glucose levels were measured, and mice were injected (t=0) with an intraperitoneal (i.p.) glucose load of 2 g/kg (200 mg/ml glucose solution, dose volume 10 ml/kg). Tail blood glucose levels were measured at times 0, 15, 30, 60, 90, 120 minutes following the i.p. glucose load. Stratification of the animals during the IPGTT was such that for example two mice from group 1 are dosed followed by two mice from group 2, 3, 4, before the next two mice from group 1, 2, 3 etc. were handled. This was to allow for equal distribution of “time of day” throughout all groups.

In series [4] the target is human glucagon-like peptide 1 receptor (human, UniProt P43220 24-463). In words: cell-based or functional assay.
In series [5] the target is T2, human glucose-dependent insulinotropic polypeptide receptor (human, UniProt P48546 22-466).
T2 sequence (looked up): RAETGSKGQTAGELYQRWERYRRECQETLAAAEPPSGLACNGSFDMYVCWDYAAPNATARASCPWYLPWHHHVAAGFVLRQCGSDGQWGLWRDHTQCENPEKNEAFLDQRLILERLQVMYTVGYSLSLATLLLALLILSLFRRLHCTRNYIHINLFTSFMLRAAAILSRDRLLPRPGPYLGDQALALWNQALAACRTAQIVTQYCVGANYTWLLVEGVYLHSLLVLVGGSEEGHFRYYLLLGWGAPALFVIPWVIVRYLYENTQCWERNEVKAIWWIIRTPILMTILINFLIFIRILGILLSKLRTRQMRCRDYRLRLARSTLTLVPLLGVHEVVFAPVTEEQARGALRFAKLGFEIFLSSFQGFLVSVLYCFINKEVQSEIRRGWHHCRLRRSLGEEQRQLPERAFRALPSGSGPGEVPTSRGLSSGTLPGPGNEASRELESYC
In words: cell-based or functional assay.

A further series addresses human glucagon receptor (human, UniProt P47871 26-477). The experiment in a line: cell-based or functional assay.
The next series deals with T3, mouse GLP-1 receptor (mouse, UniProt O35659 22-463).
T3 sequence (looked up): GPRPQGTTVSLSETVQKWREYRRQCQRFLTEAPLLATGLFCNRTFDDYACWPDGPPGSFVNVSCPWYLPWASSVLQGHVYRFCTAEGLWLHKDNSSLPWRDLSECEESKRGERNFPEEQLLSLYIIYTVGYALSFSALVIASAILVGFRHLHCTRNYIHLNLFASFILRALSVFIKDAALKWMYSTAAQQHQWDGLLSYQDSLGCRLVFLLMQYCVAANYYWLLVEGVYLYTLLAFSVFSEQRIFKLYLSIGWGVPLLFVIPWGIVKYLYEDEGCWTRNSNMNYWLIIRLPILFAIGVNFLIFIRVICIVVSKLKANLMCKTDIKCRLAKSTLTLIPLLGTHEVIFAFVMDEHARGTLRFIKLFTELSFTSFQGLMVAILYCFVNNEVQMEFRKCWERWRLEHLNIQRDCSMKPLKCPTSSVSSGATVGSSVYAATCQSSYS
In words: cell-based or functional assay.

A further series has as its target T4, mouse GIP receptor (mouse, UniProt Q0P543 19-460).
T4 sequence (looked up): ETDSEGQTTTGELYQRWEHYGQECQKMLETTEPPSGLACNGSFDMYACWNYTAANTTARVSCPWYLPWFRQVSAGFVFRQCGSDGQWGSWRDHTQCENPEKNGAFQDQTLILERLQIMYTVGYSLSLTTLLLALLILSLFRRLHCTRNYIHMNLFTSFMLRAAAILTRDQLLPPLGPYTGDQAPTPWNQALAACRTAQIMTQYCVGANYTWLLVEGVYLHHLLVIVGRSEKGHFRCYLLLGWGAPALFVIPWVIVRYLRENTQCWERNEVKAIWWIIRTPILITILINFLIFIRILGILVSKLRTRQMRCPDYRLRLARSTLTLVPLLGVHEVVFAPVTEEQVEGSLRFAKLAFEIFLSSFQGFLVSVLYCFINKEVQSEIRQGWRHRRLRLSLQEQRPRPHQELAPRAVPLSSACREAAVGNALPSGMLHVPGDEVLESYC
In words: cell-based or functional assay.

The next series concerns the target mouse Gcg receptor (mouse, UniProt Q61606 27-485). In words: cell-based or functional assay.
Where [6] appears, read: 1.0 nmol/kg s.c. once daily, Day 13.
[7] abbreviates: daily s.c. dosing over 13 days, compared to vehicle.

Chain of mouse Gcg receptor (Q61606 27-485): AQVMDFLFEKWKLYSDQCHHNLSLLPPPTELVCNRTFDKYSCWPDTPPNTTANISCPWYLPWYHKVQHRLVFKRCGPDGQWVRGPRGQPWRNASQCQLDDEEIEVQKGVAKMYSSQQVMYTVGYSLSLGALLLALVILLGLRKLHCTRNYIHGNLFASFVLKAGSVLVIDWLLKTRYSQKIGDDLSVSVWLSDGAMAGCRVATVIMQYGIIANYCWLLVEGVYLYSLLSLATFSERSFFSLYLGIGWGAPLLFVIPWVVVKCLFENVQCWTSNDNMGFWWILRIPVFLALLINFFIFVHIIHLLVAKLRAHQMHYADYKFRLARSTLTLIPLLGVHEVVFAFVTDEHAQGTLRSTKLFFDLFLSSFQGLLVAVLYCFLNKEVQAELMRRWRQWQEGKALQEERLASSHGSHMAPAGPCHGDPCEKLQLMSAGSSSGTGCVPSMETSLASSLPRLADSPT
Chain of human glucagon receptor (P47871 26-477): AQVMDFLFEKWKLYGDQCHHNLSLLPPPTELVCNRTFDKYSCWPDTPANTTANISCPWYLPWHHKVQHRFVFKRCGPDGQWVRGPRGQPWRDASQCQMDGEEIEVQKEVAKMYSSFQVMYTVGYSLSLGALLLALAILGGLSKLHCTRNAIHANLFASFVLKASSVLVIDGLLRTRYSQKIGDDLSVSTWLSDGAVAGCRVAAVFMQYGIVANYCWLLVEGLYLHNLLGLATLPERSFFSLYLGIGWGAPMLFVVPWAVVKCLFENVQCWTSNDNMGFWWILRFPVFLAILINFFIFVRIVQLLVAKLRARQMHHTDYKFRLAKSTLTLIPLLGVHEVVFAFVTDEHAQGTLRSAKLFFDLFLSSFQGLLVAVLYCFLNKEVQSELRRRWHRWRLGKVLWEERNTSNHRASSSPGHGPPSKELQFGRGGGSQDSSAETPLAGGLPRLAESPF
T1 sequence (P43220 24-463): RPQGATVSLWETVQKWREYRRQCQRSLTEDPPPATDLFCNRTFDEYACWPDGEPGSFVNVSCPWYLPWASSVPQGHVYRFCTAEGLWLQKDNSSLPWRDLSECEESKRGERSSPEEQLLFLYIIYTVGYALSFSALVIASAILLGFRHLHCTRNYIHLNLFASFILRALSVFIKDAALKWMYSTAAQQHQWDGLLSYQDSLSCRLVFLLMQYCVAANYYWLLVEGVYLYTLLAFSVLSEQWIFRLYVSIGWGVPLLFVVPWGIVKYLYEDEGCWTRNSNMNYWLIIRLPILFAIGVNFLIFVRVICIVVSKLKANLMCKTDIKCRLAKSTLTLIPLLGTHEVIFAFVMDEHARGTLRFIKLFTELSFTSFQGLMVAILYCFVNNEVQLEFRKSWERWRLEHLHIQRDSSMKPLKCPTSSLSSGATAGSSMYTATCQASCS

As usually defined, the EC50 is the midpoint of the concentration-response curve. As for `CC(C)C[C@H](NC(=O)[C@H](CC(C)C)NC(=O)[C@H](Cc1c[nH]c2ccccc12)NC(=O)[C@H](CCC(N)=O)NC(=O)[C@@H](NC(=O)[C@H](Cc1ccccc1)NC(=O)[C@H](CCC(=O)O)NC(=O)C(C)(C)NC(=O)[C@H](C)NC(=O)[C@H](C)NC(=O)[C@H](CCC(N)=O)NC(=O)[C@H](CCCCNC(=O)[C@@H](N)CCCCNC(=O)[C@@H](N)CCCCNC(=O)CC[C@H](NC(=O)CCCCCCCCCCCCCCCCCCC(=O)O)C(=O)O)NC(=O)[C@H](CCC(=O)O)NC(=O)[C@H](CC(C)C)NC(=O)[C@H](Cc1ccc(O)cc1)NC(=O)[C@H](Cc1ccc(O)cc1)NC(=O)[C@H](CO)NC(=O)[C@H](Cc1ccc(O)cc1)NC(=O)[C@H](CC(=O)O)NC(=O)[C@H](CO)NC(=O)[C@@H](NC(=O)[C@H](Cc1ccccc1)NC(=O)[C@@H](NC(=O)CNC(=O)[C@H](Cc1c[nH]cn1)NC(=O)C(C)(C)NC(=O)[C@@H](N)Cc1c[nH]cn1)[C@@H](C)O)[C@@H](C)O)C(C)C)C(=O)N[C@@H](CCC(=O)O)C(=O)NCC(=O)NCC(=O)N1CCC[C@H]1C(=O)N[C@@H](CO)C(=O)N[C@@H](CO)C(=O)NCC(=O)N[C@@H](C)C(=O)N1CCC[C@H]1C(=O)N1CCC[C@H]1C(=O)N1CCC[C@H]1C(=O)N[C@@H](CO)C(N)=O` [Compound No. 26] (H-H[Aib]HGTFTSDYSYYLEK([εLys-εLys-γGlu-C20 diacid])QAA[Aib]EFVQWLLEGGPSSGAPPPS-NH2; N-terminus assumed), at human GLP-1 receptor, the EC50 worked out at 3.1 pM. Further, in series [1], the half-life is 80 h. In [2] (1.0 nmol/kg group, Day 0 (baseline)), the “Absolute BW (grams) Day 0” value worked out at 60.7 ± 1.9 grams. Besides, in series [2] (setting [6]), the “Absolute BW (grams) Day 13” value came to 51.6 ± 2.2 grams and the “Change in BW (%) Day 13” value was −15.6 ± 0.9%. Also, the “Cumulative food intake (grams) Day 13” value in series [2] (1.0 nmol/kg s.c. once daily, mean ± SEM, n = 2) came out at 20.1 ± 3.4 grams. In series [2] (setting [7]), the “reduction in body weight (in words)” value is recorded as “superior reduction” and the “reduction in food intake (in words)” value is reported as “superior reduction”. In addition, the “iAUC, IPGTT (min*mg/dL) Day 14” value in series [3] came to 8789 ± 1521 mg·min/dL.

B1: Compound No. 33 (peptide)
peptide: H[Aib]HGTFTSDYSIYLEKKAA[Aib]EFVQWLLEGGPSSGAPPPS-NH2
modifications: not fully specified (residue 16); printed as H-Aib-HGTFTSDYSIYLE-K[(2S)-2-amino-6-[[(2S)-2-amino-6-[[(4S)-4-carboxy-4-(19-carboxynonadecanoylamino)butanoyl]amino]hexanoyl]amino]hexanoyl]-KAA-Aib-EFVQWLLEGGPSSGAPPPS-NH2
On to B1, for which, in series [4], the “hGLP-1R CRE Luc EC50 (pM)” value was determined as 3.3 pM. Besides, in series [5], the “hGIPR CRE Luc EC50 (pM)” value worked out at 7.3 pM. For the same molecule, the “hGcgR CRE Luc EC50 (pM)” value with human glucagon receptor came to 13.7 pM. Besides, the “mGLP-1R CRE Luc EC50 (pM)” value with mouse GLP-1 receptor is 2.2 pM. For the same molecule, the “mGIPR CRE Luc EC50 (pM)” value with mouse GIP receptor is 10 pM. Besides, in the series with mouse Gcg receptor, the “mGcgR CRE Luc EC50 (pM)” value came to 8.1 pM.

B2: Compound No. 21 (peptide)
peptide: H[Aib]HGTFTSDYSIYLEKQAA[Aib]EFVQWLLEGGPSSGAPPPS-NH2
modifications: not fully specified (residue 16)
Regarding B2, in [4], the “hGLP-1R CRE Luc EC50 (pM)” value is 3 pM. Moreover, in series [5], the “hGIPR CRE Luc EC50 (pM)” value is 3.2 pM. The “hGcgR CRE Luc EC50 (pM)” value with human glucagon receptor is 26.6 pM. The “mGLP-1R CRE Luc EC50 (pM)” value with mouse GLP-1 receptor came to 2.9 pM. Moreover, the “mGIPR CRE Luc EC50 (pM)” value with mouse GIP receptor came to 9.8 pM. For the same molecule, the “mGcgR CRE Luc EC50 (pM)” value in the series with mouse Gcg receptor amounted to 56.1 pM.

B3: Compound No. 30 (peptide)
peptide: H[Aib]HGTFTSDYSIYLEKKYA[Aib]EFVQWLLEGGPSSGAPPPS-NH2
modifications: not fully specified (residue 16); printed as H-Aib-HGTFTSDYSIYLE-K[(2S)-2-amino-6-[[(2S)-2-amino-6-[[(4S)-4-carboxy-4-(19-carboxynonadecanoylamino)butanoyl]amino]hexanoyl]amino]hexanoyl]-KYA-Aib-EFVQWLLEGGPSSGAPPPS-NH2
Consider B3, for which, in series [4], the “hGLP-1R CRE Luc EC50 (pM)” value amounted to 3.9 pM. Besides, the “hGIPR CRE Luc EC50 (pM)” value in [5] was 15.6 pM. Further, in the series with human glucagon receptor, the “hGcgR CRE Luc EC50 (pM)” value stood at 9.3 pM. The “mGLP-1R CRE Luc EC50 (pM)” value in the series with mouse GLP-1 receptor is 2.6 pM. The “mGIPR CRE Luc EC50 (pM)” value with mouse GIP receptor amounted to 11.2 pM. The “mGcgR CRE Luc EC50 (pM)” value with mouse Gcg receptor was found to be 5.7 pM.
